Test results taken from patent US20190201542A1 (AbbVie / Abbott, published 2019).

T1: human ASCL1 (human, UniProt P50553 1-236, limits assumed)
T1 construct: Transcription factor; also called hASCL1; immobilized human ASCL1
T1 sequence (looked up): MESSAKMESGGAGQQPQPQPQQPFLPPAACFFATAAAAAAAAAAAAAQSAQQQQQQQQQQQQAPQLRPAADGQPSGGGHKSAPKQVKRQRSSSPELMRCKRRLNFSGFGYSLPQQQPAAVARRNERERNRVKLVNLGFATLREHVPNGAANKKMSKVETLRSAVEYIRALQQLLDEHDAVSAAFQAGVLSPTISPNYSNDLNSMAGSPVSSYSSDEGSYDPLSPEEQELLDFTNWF

T2: hASCL1 in 293 cells engineered to express ASCL1 (293-ASCL1) (human, UniProt P50553 1-236)
T2 construct: whole, on cells; also called DDDK-tagged hASCL1 from pLMEGPA-hASCL1-NFlag
T2 sequence (looked up): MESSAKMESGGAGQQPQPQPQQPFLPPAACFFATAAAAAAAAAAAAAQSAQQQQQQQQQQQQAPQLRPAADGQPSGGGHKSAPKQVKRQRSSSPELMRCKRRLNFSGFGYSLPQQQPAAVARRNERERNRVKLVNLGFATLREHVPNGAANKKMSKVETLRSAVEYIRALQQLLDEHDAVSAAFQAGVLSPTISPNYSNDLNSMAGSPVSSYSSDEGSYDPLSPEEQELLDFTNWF

T3: human DLL3 (human, UniProt Q9NYJ7 27-492, limits assumed)
T3 construct: also called hDLL3; DLL3 protein
T3 sequence: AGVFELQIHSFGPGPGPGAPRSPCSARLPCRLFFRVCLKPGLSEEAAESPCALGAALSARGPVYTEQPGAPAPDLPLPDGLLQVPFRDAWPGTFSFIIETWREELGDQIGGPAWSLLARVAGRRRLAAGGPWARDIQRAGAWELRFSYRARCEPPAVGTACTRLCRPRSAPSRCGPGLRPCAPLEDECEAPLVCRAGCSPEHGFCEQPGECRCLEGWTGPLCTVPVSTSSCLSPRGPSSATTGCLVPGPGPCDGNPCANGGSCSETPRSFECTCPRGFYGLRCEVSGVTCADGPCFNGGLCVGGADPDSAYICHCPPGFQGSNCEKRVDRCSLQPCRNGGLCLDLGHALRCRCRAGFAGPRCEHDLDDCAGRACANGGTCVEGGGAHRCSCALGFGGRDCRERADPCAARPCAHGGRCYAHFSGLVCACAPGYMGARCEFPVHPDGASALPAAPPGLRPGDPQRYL

T4: DLL3 extracellular domain (amino acids 27-466) (human, UniProt Q9NYJ7 27-466)
T4 construct: also called DLL3 ECD; wild type DLL3 ECD
T4 sequence: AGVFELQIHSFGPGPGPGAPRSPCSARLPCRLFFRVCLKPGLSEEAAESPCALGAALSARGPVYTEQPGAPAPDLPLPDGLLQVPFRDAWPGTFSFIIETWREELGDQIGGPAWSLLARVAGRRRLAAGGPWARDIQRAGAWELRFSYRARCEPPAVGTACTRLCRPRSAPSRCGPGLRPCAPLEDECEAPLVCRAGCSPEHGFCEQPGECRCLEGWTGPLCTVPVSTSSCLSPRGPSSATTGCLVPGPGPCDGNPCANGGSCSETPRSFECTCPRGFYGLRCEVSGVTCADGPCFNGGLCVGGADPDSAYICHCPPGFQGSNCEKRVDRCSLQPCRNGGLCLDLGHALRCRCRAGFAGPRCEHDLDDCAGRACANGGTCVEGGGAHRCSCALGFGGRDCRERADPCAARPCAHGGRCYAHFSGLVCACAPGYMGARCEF


What was measured:
human ASCL1 = biological target: T1, human ASCL1; test: screen on immobilized hASCL1 or h293-hASCL1 cells
[1] = biological target: T2, hASCL1 in 293 cells engineered to …; test: immunohistochemistry on FFPE sections, antibody at 10 ug/ml
Experimental: IHC was performed essentially as follows. Planar sections of formalin fixed and paraffin embedded (FFPE) tissues were cut and mounted on glass microscope slides. After xylene de-paraffinization 5 μm sections were pre-treated with Antigen Retrieval Solution (Dako) for 20 mins. at 99° C., cooled to 75° C. and then treated with 0.3% hydrogen peroxide in PBS followed by Avidin/Biotin Blocking Solution (Vector Laboratories). FFPE slides were then blocked with 10% horse serum in 3% BSA in PBS buffer and incubated with a primary anti-ASCL1 antibody (clone SC72.2), diluted to 10 μg/ml in 3% BSA/PBS, for 30 mins. at room temperature. The FFPE slides were incubated with biotin-conjugated horse anti-mouse antibody (Vector Laboratories), diluted to 2.5 μg/ml in 3% BSA/PBS, for 30 mins. at room temperature followed by incubation in streptavidin-HRP (ABC Elite Kit; Vector Laboratories). Chromogenic detection was developed with 3,3′-diaminobenzidine (Thermo Scientific) for 5 mins. at room temperature and tissues were counterstained with Meyer's hematoxylin (IHC World), washed with alcohol and immersed in xylene. Sections were then viewed by brightfield microscopy and ASCL1 expression was noted.
PDX tumors were stained by IHC (FIG. 12) and ASCL1 protein expression by IHC correlates with the expected ASCL1 mRNA expression based on microarray results.

human DLL3 = biological target: T3, human DLL3; test: screen on immobilized hDLL3 or h293-hDLL3 cells
Summary of the method: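 Solid-phase ELISA on DLL3-His (0.5 μg/ml coating), developed with HRP anti-mouse IgG and TMB and read at OD 450, was one screen for supernatants of single-cell hybridomas from human DLL3-immunized mice taken after 10 days in culture. Flow-cytometry binding counted as positive only above the control.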

[2] = biological target: T4, DLL3 extracellular domain (amino acids …); test: fine epitope mapping (phage display peptides or yeast display of DLL3 ECD mutants)
Experimental: Fine epitope mapping was further performed on selected antibodies using one of two methods. The first method employed the Ph.D.-12 phage display peptide library kit (New England Biolabs) which was used in accordance with the manufacturer's instructions. The antibody for epitope mapping was coated overnight at 50 μg/mL in 3 mL 0.1 M sodium bicarbonate solution, pH 8, onto a Nunc MaxiSorp tube (Nunc). The tube was blocked with 3% BSA solution in bicarbonate solution. Then, […] input phage in PBS+0.1% Tween-20 was allowed to bind, followed by ten consecutive washes with 0.1% Tween-20 to wash away non-binding phage. Remaining phage were eluted with 1 mL 0.2 M glycine for 10 minutes at room temperature with gentle agitation, followed by neutralization with 150 μL 1M Tris-HCl pH 9. Eluted phage were amplified and panned again with 10¹¹ input phage, using 0.5% Tween-20 during the wash steps to increase selection stringency. DNA from 24 plaques of the eluted phage from the second round was isolated using the Qiaprep M13 Spin kit (Qiagen) and sequenced. Binding of clonal phage was confirmed using an ELISA assay, where the mapped antibody or a control antibody was coated onto an ELISA plate, blocked, and exposed to each phage clone. Phage binding was detected using horseradish peroxidase conjugated anti-M13 antibody (GE Healthcare), and the 1-Step Turbo TMB ELISA solution (Pierce). Phage peptide sequences from specifically binding phage were aligned using Vector NTI (Life Technologies) against the antigen ECD peptide sequence to determine the epitope of binding.
Alternatively, a yeast display method (Chao et al., 2007, PMID: 17406305) was used to map the epitopes of selected antibodies. Libraries of DLL3 ECD mutants were generated with error prone PCR using nucleotide analogues 8-oxo-2′deoxyguanosine-5′-triphosphate and 2′-deoxy-p-nucleoside-5′triphosphate (TriLink Bio) for a target mutagenesis rate of one amino acid mutation per clone. These were transformed into a yeast display format. […]

| binding result (human ASCL1) | binding result [1] | binding result (human DLL3) | binding result [2] | Binder |
| --- | --- | --- | --- | --- |
| binds | binds |  |  | SC72.2 (antibody, V domains shown, murine mAb; also called anti-ASCL1 antibody clone SC72.2) VH: QVQLQQSGAELVRPGASVTLSCKASGYTFIDYEMHWVKQTPVHGLEWIGAIDPETGGTTYNQNFKGKATLTADKSSNTAYMELRSLTSGDSAVYYCSRGGLDYWGQGTTLTVSS VL: not shown |
|  |  | binds | binds | SC16.34 (antibody, V domains shown, murine mAb) VH: QIQLVQSGPELKRPGETVKISCKASGYTFTNYGMNWVKQAPGKGLKWMGWINTYTGDPTYADDFKGRFAFSLETSASTAYLQINNLKNEDTATYFCARIGGNSPSDYWGQGTSLTVSS VL: SIVMTQTPKFLLVSAGDRVTITCKASQSVSNDVAWYQQKPGQSPKLLIYYASNRYSGVPDRFTGSGYGTDFTFTISTVQAEDLAVYFCQQDYSSPWTFGGGTKLEIK |
|  |  | binds | binds | SC16.56 (antibody, V domains shown, murine mAb) VH: QIQLVQSGPELKKPGETVKISCKASGYTFTNYGMNWVKQAPGKGLKWMAWINTYTGEPTYADDFKGRFAFSLETSASTASLQIINLKNEDTATYFCARIGDSSPSDYWGQGTTLTVSS VL: SIVMTQTPKFLLVSAGDRVTITCKASQSVSNDVVWYQQKPGQSPKLLIYYASNRYTGVPDRFAGSGYGTDFSFTISTVQAEDLAVYFCQQDYTSPWTFGGGTKLEIR |
|  |  | binds | binds | SC16.23 (antibody, V domains shown, murine mAb) VH: QVTLKESGPGILQPSQTLSLTCSFSGFSLSTSNTGIGWIRQPSGTGLEWLAHIWWNDDKYYNPSLKSRLTISKETSNNQVFLKITNVDTADTASYFCVQIGRDYSNYAWYFDVWGAGTTVTVSS VL: QIVLTQSPAIMSASPGEKVTLTCSASSSVSSRYLYWYQQKPGSSPKLWIYSTSNLASGVPARFSGSGSGTSYSLIISSMEAEDAASYFCHQWSNYPLTFGAGTKLELK |
